The source of these data is paper PMC3799859, “Sigma-1 Receptor Chaperone at the ER-Mitochondrion Interface Mediates the Mitochondrion-ER-Nucleus Signaling for Cellular Survival” (PLoS ONE, 2013).

This series concerns the molecule itself. Kind of series: non-reducing gel and blot of the purified protein; ΔIRE1-V5/His purified on a Ni column, non-reducing condition (without β-mercaptoethanol).

In general, stoichiometry N refers to the number of molecules, sites or subunits per partner or assembly.

B1: ΔIRE1-V5/His (ER lumenal domain of human IRE1) (domain or fragment, UniProt O75460 19-443, looked up)
chain: IFGSTSTVTLPETLLFVSTLDGSLHAVSKRTGSIKWTLKEDPVLQVPTHVEEPAFLPDPNDGSLYTLGSKNNEGLTKLPFTIPELVQASPCRSSDGILYMGKKQDIWYVIDLLTGEKQQTLSSAFADSLCPSTSLLYLGRTEYTITMYDTKTRELRWNATYFDYAASLPEDDVDYKMSHFVSNGDGLVVTVDSESGDVLWIQNYASPVVAFYVWQREGLRKVMHINVAVETLRYLTFMSGEVGRITKWKYPFPKETEAKSKLTPTLYVGKYSTSLYASPSMVHEGVAVVPRGSTLPLLEGPQTDGVTIGDKGECVITPSTDVKFDPGLKSKNKLNYLRNYWLLIGHHETPLSASTKMLERFPNNLPKHRENVIPADSEKKSFEEVINLVDQTSENAPTTVSRDVEEKPAHAPARPEAPVDSMLKD
notes: human IRE1, lumenal domain (ΔIRE1), lacking the cytoplasmic domain; Most of the purified protein is a dimer under non-reducing conditions; a portion was pretreated with β-mercaptoethanol to keep it monomeric; source: CHO, transfected (pcDNA3.1); in lysate, or purified from the cell extract on Ni-NTA agarose; not shown: V5, C-terminal, kept; His, C-terminal, kept
For the protein B1, the “stoichiometry N” value came to 2.
